Article PMC5775426

Legend:
[1] = molecular target: AV2 protein of tomato leaf curl Palampur virus, untagged, in N. benthamiana leaves (Tomato leaf curl Palampur virus); assay: SDS-PAGE and western blot; leaf extracts of N. benthamiana (PVX-infiltrated at 14 dpi, ToLCPalV-infected, TRV-infiltrated), boiled 5 minutes, 10% SDS-PAGE, detection with AV2 antiserum; dimer told from the band's size
[2] = molecular target: AV2Δ10N, untagged, from PVX-AV2Δ10N in N. benthamiana leaves (Tomato leaf curl Palampur virus); assay: as above

Row | Substance | stoichiometry N [1] | stoichiometry N [2]
1 | AV2 protein of tomato leaf curl Palampur virus, untagged, in N. benthamiana leaves (natural protein) | 2 | 
2 | AV2Δ10N, untagged, from PVX-AV2Δ10N in N. benthamiana leaves (domain or fragment) |  | 2
